Reference: PMC6685058 (2019)

B1: AD-CEBP-1(aa 1–319) FL [C. elegans] / BD-IMA-3(aa 278–514) [C. elegans] (parent complex)
chain 1: MYSKLNYSHQKGDQALKHPHLVRLQQSEVRGFTDMPNNGASTSSAGSFARQDSLTIAASLQQRDRERHPVDFMETELDLGDYLQVLHDLDVPTDNVDFDDAELQKCNILYDGEHPYEQPELNGYERHVAYGTGYRVPGDYDQDGYKMNCEVKAETPDFGATKTRRAVKRPVPYDDYQKEYSEESSDMTDNDGSVDDSYFEPKSKKTKSAGLENFKPQTRARKYKLKADEEKAEPTYKLKRARNNDAVRKSRKKAKELQDKKEAEHDKMKRRIAELEGLLQSERDARRRDQDTLEQLLRNKGPMKEQRMPQRHILENFNK
chain 2: VVTHLVPLLGHVDVKVQTAALRAVGNIVTGTDEQTQLVLDSGVLRFMPGLLAHYKEKINKEAVWFVSNITAGNQQQVQDVFDAGIMPMIIHLLDRGDFPTQKEAAWAISNVTISGRPNQVEQMVKLGVLRPFCAMLSCTDSQIIQVVLDGINNILKMAGEAAEQVTSEIEECGGLDKIENLQNHENEDIYKLAFEIIDNFFSSDDETGNVEGAQSSAFGGDVPPVPDAPNGGWNFGK

Variants of: B1
Assay: yeast two-hybrid, β-galactosidase activity; parent: 110; read off a plot

response [Miller units]	Variant
~190	chain 1 MYSKLNYSHQKGDQALKHPHLVRLQQSEVRGFTDMPNNGASTSSAGSFARQDSLTIAASLQQRDRERHPVDFMETELDLGDYLQVLHDLDVPTDNVDFDDAELQKCNILYDGEHPYEQPELNGYERHVAYGTGYRVPGDYDQDGYKMNCEVKAETPDFGATKTRRAVKRPVPYDDYQKEYSEESSDMTDNDGSVDDSYFEPKSKKTKSAGLENFKPQTRARKYKLKADEEKAEPTYKLAAARNNDAVRKSRKKAKELQDKKEAEHDKMKRRIAELEGLLQSERDARRRDQDTLEQLLRNKGPMKEQRMPQRHILENFNK [chain 1 K239A, chain 1 R240A]
~17	chain 1 MYSKLNYSHQKGDQALKHPHLVRLQQSEVRGFTDMPNNGASTSSAGSFARQDSLTIAASLQQRDRERHPVDFMETELDLGDYLQVLHDLDVPTDNVDFDDAELQKCNILYDGEHPYEQPELNGYERHVAYGTGYRVPGDYDQDGYKMNCEVKAETPDFGATATARAVAAPVPYDDYQKEYSEESSDMTDNDGSVDDSYFEPKSKKTKSAGLENFKPQTRARKYKLKADEEKAEPTYKLKRARNNDAVRKSRKKAKELQDKKEAEHDKMKRRIAELEGLLQSERDARRRDQDTLEQLLRNKGPMKEQRMPQRHILENFNK [chain 1 K162A, chain 1 R164A, chain 1 K168A, chain 1 R169A]
~110	chain 1 MYSKLNYSHQKGDQALKHPHLVRLQQSEVRGFTDMPNNGASTSSAGSFARQDSLTIAASLQQRDRERHPVDFMETELDLGDYLQVLHDLDVPTDNVDFDDAELQKCNILYDGEHPYEQPELNGYERHVAYGTGYRVPGDYDQDGYKMNCEVKAETPDFGATKTRRAVKRPVPYDDYQKEYSEESSDMTDNDGSVDDSYFEPKSAATASAGLENFKPQTRARKYKLKADEEKAEPTYKLKRARNNDAVRKSRKKAKELQDKKEAEHDKMKRRIAELEGLLQSERDARRRDQDTLEQLLRNKGPMKEQRMPQRHILENFNK [chain 1 K204A, chain 1 K205A, chain 1 K207A]
